{
  "source": "paper PMC3785238",
  "about": "(Cell, 2013)",
  "molecules": {"B1": {"name": "Homer1c: constitutively expressed cross-linking Homer protein (protein)", "chain": "MGEQPIFSTRAHVFQIDPNTKKNWVPTSKHAVTVSYFYDSTRNVYRIISLDGSKAIINSTITPNMTFTKTSQKFGQWADSRANTVYGLGFSSEHHLSKFAEKFQEFKEAARLAKEKSQEKMELTSTPSQESAGGDLQSPLTPESINGTDDERTPDVTQNSEPRAEPAQNALPFSHSAGDRTQGLSHASSAISKHWEAELATLKGNNAKLTAALLESTANVKQWKQQLAAYQEEAERLHKRVTELECVSSQANAVHSHKTELSQTVQELEETLKVKEEEIERLKQEIDNARELQEQRDSLTQKLQEVEIRNKDLEGQLSELEQRLEKSQSEQDAFRSNLKTLLEILDGKIFELTELRDNLAKLLECS", "modifications": "left off: tag not named ('Tagged transgenes'), end not stated, state not stated"}, "B2": {"name": "BDNF: TrkB receptor ligand (protein, UniProt P21237 19-249, looked up)", "Neurotrophic factor BDNF …": "APMKEVNVHGQGNLAYPGVRTHGTLESVNGPRAGSRGLTTTSLADTFEHVIEELLDEDQKVRPNEENHKDADLYTSRVMLSSQVPLEPPLLFLLEEYKNYLDAANMSMRVRRHSDPARRGELSVCDSISEWVTAADKKTAVDMSGGTVTVLEKVPVSKGQLKQYFYETKCNPMGYTKEGCRGIDKRHWNSQCRTTQSYVRALTMDSKKRIGWRFIRIDTSCVCTLTIKRGR"}},
  "key": {"[1]": {"tested_on": "Pin1-mGluR5 binding", "test": "Co-immunoprecipitation of Pin1 and mGluR5 in HEK293T cells", "assay_type": "cell-based", "conditions": "no other Homer"}, "[2]": {"tested_on": "mGluR5", "test": "mGluR5 phosphorylation in cultured striatal neurons", "assay_type": "cell-based", "conditions": "primary striatal cultures"}, "[3]": {"tested_on": "mGluR5-SIC", "assay_type": "cell-based, mouse"}},
  "data": [
    {"molecule": "B1", "values": [
      {"measurement": "effect of co-expression on Pin1-mGluR5 binding", "setting": "[1]", "result": "reduced Pin1-mGluR5 binding"}
    ]},
    {"molecule": "B2", "values": [
      {"measurement": "mGluR5 phosphorylation in striatal cultures", "setting": "[2]", "result": "increases mGluR5 phosphorylation"},
      {"measurement": "mGluR5-SIC amplitude or duration, WT neurons", "setting": "[3]; BDNF 10 ng/ml, 10 min, WT neurons, n = 14, 40-min monitoring", "result": "did not alter the amplitude or duration"},
      {"measurement": "mGluR5-SIC potentiation, WT neurons pretreated with KCl", "setting": "[3]; BDNF 10 ng/ml, 10 min, after KCl pretreatment, n = 6, p < 0.05", "result": "~ 1.5 fold"},
      {"measurement": "mGluR5-SIC potentiation, Grm5AA/AA neurons", "setting": "[3]; BDNF 10 ng/ml, 10 min, Grm5AA/AA n = 8, or Homer1a-expressing n = 8", "result": "not potentiated"},
      {"measurement": "mGluR5-SIC potentiation, Homer1aW24A mutant or GFP expressing WT neurons", "setting": "[3]; BDNF 10 ng/ml, 10 min, Homer1aW24A n = 6, GFP n = 5", "result": "absent"},
      {"measurement": "mGluR5-SIC potentiation, Homer1c expressing Homer1−/− neurons", "setting": "[3]; BDNF 10 ng/ml, 10 min, Homer1c viral transgene, n = 8", "result": "blocked BDNF potentiation"},
      {"measurement": "mGluR5-SIC potentiation, Homer1-deficient neurons", "setting": "[3]; BDNF 10 ng/ml, 10 min, Homer1−/−Homer2−/−Homer3−/− (n = 14) or Homer1−/− (n = 11) neurons, charge transfer versus baseline, p < 0.001", "result": "> 2", "unit": "fold"},
      {"measurement": "mGluR5-SIC potentiation, Pin1−/− neurons", "setting": "[3]; BDNF 10 ng/ml, 10 min, Pin1−/− (n = 6) or Homer1a-expressing Pin1−/− (n = 4)", "result": "not potentiated"},
      {"measurement": "mGluR5-SIC potentiation, Homer1a expressing WT neurons", "setting": "[3]; BDNF 10 ng/ml, 10 min, n = 6, p < 0.001", "result": "potentiated"},
      {"measurement": "mGluR5-SIC potentiation, Grm5R/R neurons", "setting": "[3]; BDNF 10 ng/ml, 10 min, n = 7, p < 0.001, no KCl pretreatment or Homer1a expression needed", "result": "potentiated"},
      {"measurement": "mGluR5-SIC potentiation, Homer1a−/− neurons pretreated with KCl", "setting": "[3]; BDNF after KCl pretreatment, n = 3", "result": "not in Homer1a^−/− pre-treated with KCl"}
    ]}
  ]
}
